Assay results as given in the DeepSol protein solubility set.

Test: soluble on expression in E. coli; label from the status in PepcDB or PDB records

Row | Sequence | soluble on expression in E. coli
1 | MSLWEFYMPTDVFFGEKILEKRGNIIDLLGKRALVVTGKSSSKKNGSLDDLKKLLDETEISYEIFDEVEENPSFDNVMKAVERYRNDSFDFVVGLGGGSPMDFAKAVAVLLKEKDLSVEDLYDREKVKHWLPVVEIPTTAGTGSEVTPYSILTDPEGNKRGCTLMFPVYAFLDPRYTYSMSDELTLSTGVDALSHAVEGYLSRKSTPPSDALAIEAMKIIHRNLPKAIEGNREARKKMFVASCLAGMVIAQTGTTLAHALGYPLTTEKGIKHGKATGMVLPFVMEVMKEEIPEKVDTVNHIFGGSLLKFLKELGLYEKVAVSSEELEKWVEKGSRAKHLKNTPGTFTPEKIRNIYREALGVEGGSHHHHHH | soluble
2 | MMLFSNLIKENQKIWNAYLHHDFVKKLEDKSLKQENFLFYLKQDYIYLLNYAKCYARLALNSNTAKELRFAMKFQNYIVEGEMELHRAILSLGINADELDIKDESLVNIAYSRYMLSVGENGDFLDMLVALSACAIGYAKIGAEIINRLKNENLKDHPYKEWILTYGSENFQNEAKEFEDFVNSYTSSVGAQKFQKLSEIFHTVTRLEVAFWEHSLRMELNLLEHHHHHH | soluble
3 | MGSDKIHHHHHHMLVVKDKPKSPISEAYRTLRSNIQFSSFDKDMQLILITSSGPGEGKSTTSCNLALAMAEAGNSVLLLDCDLRKPSVHKKFKISNNIGLSNVLAGQTKFESASHWYNQNLCILTAGKIPPNPAEMLSSKRMKAFLNEAKGVFKYIILDAPPVIAVTDPQILSTMVDGVVLVVSSGVADIEAAKRAKELLENVNANIIGSVLNRVDTESRRGYYGGYYYYYGDEGEKVKKHKDR | not soluble
4 | MSQSYHRPRPAGMAGAILDKQASKFNDVEAGYLLEWIRDLTKEDFDCEASRDNFREQLKDGQRLCKLVNAIKAGSVKKIMKPISNFNCLENINQFSTAARSLGVKDEETFQSVDLFDGRDLFSVTVTLQSLARKVEKLGITPPKQVSKDQIVNQ | not soluble
5 | MGSDKIHHHHHHMVTKTKTRLGNQRPTQSVTLHYVESLAHEAIELYQKTGRNCYPWQVNLLENIMGIDNNGLWVHQKYGYAIPRRNGKTEDVYILELWALHHGLRILHTAHRISTSHSSFEALKKLLEDMGYVEDVDFVSNKAKGQERIEFKSTGSVIQYRTRTSNGGLGEGFDLLIIDEAQEYTVEQESALKYTVTDSDNPMTVMCGTPPTMVSTGTVFTNFRTKVLAGKSEYSGWSEWSVEDIKDVNDIDSWYLTNPSLGYHLTERKIKAEIGDDELDHNIQRLGYWPSFNQKSAISENEWKRLKVDDVPELSGKLFVGIKYGQDGSNVSMSIAARTIDKKIFIEVIDCQSVRNGMQWIINFLQTADIEKVVVDGANGQTLLANEMKDFKLREPIMPTVSEIITANSVWEQAIVQETLRHANQPSLTEVVTNCDKRNIGSNGGFGYKSLYDDRDISLMDSALLAHWVCYMTKPKRKQRISY | not soluble
6 | MVYLYKKGVGMNEQSQAKSPEALRAMVAGTLANFQHPTLKHNLTTLKALHHVAWMDDTLHVELVMPFVWHSAFEELKEQCSAELLRITGAKAIDWKLSHNIATLKRVKNQPGINGVKNIIAVSSGKGGVGKSSTAVNLALALAAEGAKVGILDADIYGPSIPTMLGAENQRPTSPDGTHMAPIMSHGLATNSIGYLVTDDNAMVWRGPMASKALMQMLQETLWPDLDYLVLDMPPGTGDIQLTLAQNIPVTGAVVVTTPQDIALIDAKKGIVMFEKVEVPVLGIVENMSVHICSNCGHHEPIFGTGGAEKLAEKYHTQLLGQMPLHISLREDLDKGTPTVISRPESEFTAIYRQLADRVAAQLYWQGEVIPGEISFRAVLEHHHHHH | not soluble
7 | VGDFTYSISANLSDFTSKMGNLNGTQFLGNQVKMEGSEYNEWYGYVSDGLFLTQEDVDKSPKLNNSVKVGDIKYKDISGPDGVPDGVISPEYDRVLLGGSLPHYMFGLTFNAAYKGWDFGLTLQGVGSQKSQISAAMIEGLRDNWLNFPTILDGNYWSPKNTDEQNATAKYPRLTRTNRDANFCMSDYWLYNGRYIRLKNLSVGYTLPKAWTTKACMNTVRLYVSGSDLFTISNAPKGWDPEVSTEGYPITTSLIFGVSINF | not soluble
8 | MLGIYVLSVDRQSPFAQALKVGDTVTEVNGHHFNSMTGYQRYIQRQKVGQRATITYQRNGKTHHVTAKLMRLPTKKAGIGITLEHHHHHH | not soluble
9 | MGKNRNKNKDKDPYIGPAKTGRNDSDSDDSESSAYTYNEDIQSIMGDVEDMNDVYDQLVDNLDRAQDKNSTTRIDGLHRVNLALTAKPAPEFINRNKETIMAVCSRMANKPDSEAQFLARLVGLVAVQAGEEISEMIAEPMSQMRTILMDASRCVFLRTACATSLAIVTRIACSEDEEVTANAKACRFAWAHTKVSGSANDIGHAKLTINDAVADQPKIVTLLSSNQLEVRLAAAETLAFLHEFMQDARPGFRFPNKEHVLSLLDQMVNDSSKKKTKKDKRAQRYAVRDIRAFIADEDDAPEVNVKIGQQTLSLDSCAIKIFYDTTCDLLHGGLAQQLLHNEVLRDVFDLGPIALEPAESANKQSRLAVHEAADKHRNQVRGKQRDKRSTVY | not soluble
10 | MGSSHHHHHHGKTIFVIVPTNEEQVAFLEALAKQDELNFDWQNPPTEPGQPVVILIPSDMVEWFLEMLKAKGIPFTVYVEEGGSENLYFQGGGGGGPKREEQMYMHIRKVYGDNIPEELLQRAKRQREAQDALTLTNMLRTPTPGQTSNALQNDLDPRALIELKSWNGH | soluble
11 | MKASIKGKYDTDKTSGIGSLAFNAGDIKLRATMTDATLVAGPTLTGLALAVEKPGSFIVEYNVPKKDVRFQFMNTVRIAEKPLNLTYIHSRADNRTIVDGSLVIDSANKLSANHMVGTNNCKIKYTYAHGGLATFEPCYDLAKNTWDFAVSRRFYSGDNVRATYQTSSKLLGMEWSRNNKASGFKVCASVNLADELKTPKLTAETTWNLEM | soluble
12 | MTLHEVPTILHRCGDCPIRHRAVCARCDSEELATLEQIKYYRSYQAGQTVIWSGDKMDFVASVVTGIATLTQTMEDGRRQMVGLLLPSDFVGRPGRQTVAYDVTATTDLLMCCFRRKPFEEMMQKTPHVGQRLLEMTLDELDAAREWMLLLGRKTAREKIASLLAIIARRDAALKLRESNGPMTFDLPLTREEMADYLGLTLETVSRQVSALKRDGVIALEGKRHVIVTDFARLLEEAGDDSDGGLPV | not soluble
13 | SMNFYSAYQHGFVRVAACTHHTTIGDPAANAASVLDMARACHDDGAALAVFPELTLSGYSIEDVLLQDSLLDAVEDALLDLVTESADLLPVLVVGAPLRHRHRIYNTAVVIHRGAVLGVVPKSYLPTYREFYERRQMAPGDGERGTIRIGGADVAFGTDLLFAASDLPGFVLHVEICEDMFVPMPPSAEAALAGATVLANLSGSPITIGRAEDRRLLARSASARCLAAYVYAAAGEGESTTDLAWDGQTMIWENGALLAESERFPKGVRRSVADVDTELLRSERLRMGTFDDNRRHHRELTESFRRIDFALDPPAGDIGLLREVERFPFVPADPQRLQQDCYEAYNIQVSGLEQRLRALDYPKVVIGVSGGLDSTHALIVATHAMDREGRPRSDILAFALPGFATGEHTKNNAIKLARALGVTFSEIDIGDTARLMLHTIGHPYSVGEKVYDVTFENVQAGLRTDYLFRIANQRGGIVLGTGDLSELALGWSTYGVGDQMSHYNVNAGVPKTLIQHLIRWVISAGEFGEKVGEVLQSVLDTEITPELIPTGEEELQSSEAKVGPFALQDFSLFQVLRYGFRPSKIAFLAWHAWNDAERGNWPPGFPKSERPSYSLAEIRHWLQIFVQRFYSFSQFKRSALPNGPKVSHGGALSPRGDWRAPSDMSARIWLDQIDREVPKG | soluble
14 | MLARSDRLSVVAVVEGTRKQPDPATFIGKGKAEEISQILAQTHAAMVIFNHELSPVQQRNLSMVLACRIIDRTSLILEHHHHHH | not soluble
15 | MSKKFNGKVCLVTGAGGNIGLATALRLAEEGTAIALLDMNREALEKAEASVREKGVEARSYVCDVTSEEAVIGTVDSVVRDFGKIDFLFNNAGYQGAFAPVQDYPSDDFARVLTINVTGAFHVLKAVSRQMITQNYGRIVNTASMAGVKGPPNMAAYGTSKGAIIALTETAALDLAPYNIRVNAISPGYMGPGFMWERQVELQAKVGSQYFSTDPKVVAQQMIGSVPMRRYGDINEIPGVVAFLLGDDSSFMTGVNLPIAGG | soluble
16 | MGSDKIHHHHHHMSTRIPTEESLDTQQKDFLKKLKDNHYVGQNIWIKGFPGSGKSVLLVYAIKYLLNNEATQNAKILLVVFTHSLIELCKAELAELNITNVKIVTMYEFLKTKRKYDYIFCDEVQDLTSRILIKMKDQTRYMLIVAGDSNQSIYSKDPQYQEAVVIPEKITQLIDSEDWGLLYVYRLTRSIITAIQKMIPSMNIFSAKRYMLKRDTQIRLCKAEFVDQEVEYIMREARKFVNRNQSCAILFPTKDKVLEFCDTVLQLEHKPVWEKWIDQYYEPYFKRLNDHLKENQVPIECVVNSYGSLLAAENDKRIVIMTYHGVKGLDFDNVFIPFANTDLYIPGDSNITQKLFMVAMSRSRNNLYITYTGMPLSYVSLFSSDSTICANISISNELHPNLSDDINIDF | not soluble
17 | MNMYSMPGYFQNMPTIGKELVNPNPENEQEIKAVESDIHESIKKALDAGITSEEKLNERGQLSAMQRINALIDPGTWCPLNSLFNPENNKFGTTNIVNGLGRVDGKWVYIVASDNKKMAGAWVPGQAENLIRCSDAAKMMHLPLIYLLNCSGVEFPNQDKVYPNRRGGGTPFFRNSELNQLGIPVIVGIYGTNPAGGGYHSISPTILIAHQDANMAVGGAGILSGMNPKGYIDDEAAEQIIAAQIENSKLKVPAPGSVPIHYDETGFFREVYQNDLGVIDGIKKYISYLPAYNLEFFRVDTPKAPQLPAEDLYSIIPMNQKRPYDIYEVIARLFDNSEFSEYKKGYGPEMVTGLAKVNGLLVGVIANVQGLLMNYPEYKQNSVGIGGKLYRQGLIKMNEFVTLCARDRIPLIWLQDTTGIDVGDEAEKAELLGLGQSLIYSIENSKLPSLEITIRKASAAAHYVLGGPQGNNTNVFSIGTGACEYYVMPGETAANAMYSRKLVKAKKAGEDLQPIIGKMNDMIQMYTDKSRPKYCTEKGMVDEIVDMTEVRPYIQAFTEAAYQNPQSICPMHQMLTPRSTREFETFGK | soluble
18 | MATPAYMSITGTKQGLITAGAFTEDSVGNTYQEGHEDQVMVQGFNHEVIIPRDPQSGQPTGQRVHKPVVITKVFDKASPLLLAALTSGERLTKVEIQWYRTSAAGTQEHYYTTVLEDAIIVDIKDYMHNCQDPGNAHFTHLEDVHFTYRKITWTHEVSGTSGSDDWRSPVAG | soluble
19 | TREFNDLCRPHMEALAILCGETVNLVIRVGTQARFLSSAESTGMLRVGDRQGQVLDAELTAGGRILLAELPRETLEQLYLRPVDLADDDREWGDRRLPADEFERFWRELSAARAVGFAVNVQQTEEGVAAFGVAIRNRARTAVGALTVAVPITRFRQHSQGPLVSQIKNAIRELEVDIADLEP | not soluble
20 | MIGLMKGLAYTLKELTREKVTYDYPHEPLPLPDRFRGIQKFYPEKCIVCNQCVNICPTECIQLTGKKHPDPTKKGKVIETYNINFEICILCDLCTEVCPTEAIVMTNNFELAEYSRDALYKDLAWLDENDTNIRRENKP | not soluble
21 | SAAGSEATTPVIVAAGAGGEEGEHVKPFKPEKAKEIIMSLQQPAIFCNMVFDWPARHWNAKYLSQVLHGKQIRFRMGMKSMSTVPQFETTCNYVEATLEEFLTWNCDQSSISGPFRDYDHSKFWAYADYKYFVSLFEDKTDLFQDVKWSDFGFPGRNGQESTLWIGSLGAHTPCHLDSYGCNLVFQVQGRLECNGMIIAPGPQAILLPQPLKYLGLQETMASLSS | soluble
22 | MAVAANKRSVMTLFSSASDMYSHQVRIVLAEKGVSFEVELVDENNLPAELIELNPYKTVPTLVDRELALYDSKIIMEYLDERFPHPPLMPVYPVARGNSRLMIYRIERNWYSLAEKVVNGSPEVAENARNKLRNDLLTLGPVFAEFEYFMSEEFSLIDCYLAPLLWRLPVLGIDLIGPGSKELKVYMNRVFERDSFLASLTEAEREMRLAR | not soluble
